In patent EP1680442B1 (Bioincept, LLC., dated 2011):
Ends that are not written are not given here.

Target: T1, AbPIF-1(15)
T1 construct: also called AbPIP-1(15); PIF-1 antibody
Assay: competition ELISA, pAb coated at 4.5 ug/ml, unlabelled against biotinylated peptide

B1: sPIF-1(15) (peptide)
peptide: MVRIKPGSANKPSDD
modifications: not fully specified; also: flow cytometry form: FITC on N-terminus via β-alanine spacer
notes: Synthetic 15-residue peptide; In flow cytometry it carried FITC on the N-terminus through a b-alanine spacer; also called synthetic PIF-1; FITC sPIF-1(15)
IC50: 0.5 to 0.7 nM
